Measured values published in the supplement of paper PMC7125110.
± gives the standard error. Fewer inactive variants are shown than the library holds.

B1: glmS ribozyme (parent)
chain: AUAAAAGCGCCAGAACUACAGAAAUGUAGUUGACGAGGAGGAGGUUUAUCGAAUUUUCGGCGGAUGCCUCCAAA

Legend:
Settings in all cases: with glucosamine-6-phosphate
glucosamine-6-phosphate [1] = variants of: B1; experiment: self-cleavage kobs at 40 uM GlcN6P; higher = faster cleavage; RNA array
Procedure, shortened: (§1)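 A hybridised Cy3 probe tracked barcoded ribozyme variants, transcribed in situ by E. coli RNA polymerase on sequenced MiSeq chips, at 37 °C. The variants received 40 μM to 10 mM glucosamine-6-phosphate in HEPES/KCl/Mg(OAc)2 buffer. kobs came from decay fits and kcat and KM from weighted Michaelis–Menten fits.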

glucosamine-6-phosphate [2] = variants of: B1; experiment: self-cleavage kobs at 10000 uM GlcN6P; higher = faster cleavage; RNA array
Procedure, shortened: as §1

glucosamine-6-phosphate [3] = variants of: B1; experiment: self-cleavage kobs at 160 uM GlcN6P; higher = faster cleavage; RNA array
Procedure, shortened: as §1

glucosamine-6-phosphate [4] = variants of: B1; experiment: self-cleavage kobs at 640 uM GlcN6P; higher = faster cleavage; RNA array
Procedure, shortened: as §1

glucosamine-6-phosphate [5] = variants of: B1; experiment: self-cleavage kobs at 2500 uM GlcN6P; higher = faster cleavage; RNA array
Procedure, shortened: as §1

Variant	self-cleavage kobs at 40 uM GlcN6P (glucosamine-6-phosphate [1])	self-cleavage kobs at 10000 uM GlcN6P (glucosamine-6-phosphate [2])	self-cleavage kobs at 160 uM GlcN6P (glucosamine-6-phosphate [3])	self-cleavage kobs at 640 uM GlcN6P (glucosamine-6-phosphate [4])	self-cleavage kobs at 2500 uM GlcN6P (glucosamine-6-phosphate [5])
A15G U65C U69A	< 1e-05 s⁻¹	–	–	–	–
G29A G35U C50U	< 1e-05 s⁻¹	< 1e-05 s⁻¹	–	–	–
A15U G51U C71A	< 1e-05 s⁻¹	< 1e-05 s⁻¹	–	–	–
G29U G35A G40C A42G	< 1e-05 s⁻¹	–	–	–	–
A15U C34G	< 1e-05 s⁻¹	< 1e-05 s⁻¹	< 1e-05 s⁻¹	< 1e-05 s⁻¹	–
C16G G29U U46G	4.6e-05 ± 1.8e-05 s⁻¹	0.00136 ± 0.00039 s⁻¹	–	–	–
C16G G38C	< 1e-05 s⁻¹	–	< 1e-05 s⁻¹	–	–
C16U C71U	0.000761 ± 6.6e-05 s⁻¹	0.0301 ± 0.0059 s⁻¹	0.00136 ± 0.00015 s⁻¹	0.00431 ± 0.00077 s⁻¹	0.0356 ± 0.017 s⁻¹
C16G U65C C71G	< 1e-05 s⁻¹	< 1e-05 s⁻¹	–	–	–
C16U G29A G37C	< 1e-05 s⁻¹	5.01e-05 ± 1.6e-05 s⁻¹	–	–	–
G29C A36C U49C U54G	< 1e-05 s⁻¹	–	–	–	–
C16G G40U U65C	< 1e-05 s⁻¹	–	–	< 1e-05 s⁻¹	–
G29A C70U	0.000121 ± 1.3e-05 s⁻¹	0.0021 ± 0.0006 s⁻¹	0.000201 ± 2.9e-05 s⁻¹	0.000483 ± 6e-05 s⁻¹	–
C16U G41A U56C	< 1e-05 s⁻¹	3.75e-05 ± 1.4e-05 s⁻¹	–	–	–
C16G G35U	< 1e-05 s⁻¹	< 1e-05 s⁻¹	< 1e-05 s⁻¹	< 1e-05 s⁻¹	< 1e-05 s⁻¹
G29C A33C U69A	< 1e-05 s⁻¹	–	–	–	–
C16U C34U	< 1e-05 s⁻¹	< 1e-05 s⁻¹	< 1e-05 s⁻¹	–	–
G29U A33U G35A U69A	0.000163 ± 6.6e-05 s⁻¹	6.21e-05 ± 3e-05 s⁻¹	–	–	–
C16G U31A G35C G40A	< 1e-05 s⁻¹	< 1e-05 s⁻¹	–	–	< 1e-05 s⁻¹
G21U G40C	0.000253 ± 6.1e-05 s⁻¹	0.00248 ± 0.00053 s⁻¹	–	–	–
C16U G40U U56A C71G	3.89e-05 ± 1.1e-05 s⁻¹	0.00169 ± 0.00032 s⁻¹	–	–	–
G29C A36U	< 1e-05 s⁻¹	–	–	< 1e-05 s⁻¹	–
A24U	0.002 ± 0.0003 s⁻¹	–	–	–	–
G29U C70U	0.000204 ± 2.4e-05 s⁻¹	0.00452 ± 0.00093 s⁻¹	0.000273 ± 4.2e-05 s⁻¹	0.000574 ± 7.2e-05 s⁻¹	0.00187 ± 0.00047 s⁻¹
G29U U47A U57G	< 1e-05 s⁻¹	–	–	–	–
A15U G59C	< 1e-05 s⁻¹	< 1e-05 s⁻¹	< 1e-05 s⁻¹	< 1e-05 s⁻¹	< 1e-05 s⁻¹
